From paper doi:10.1101/2020.06.18.159665 (bioRxiv, 2020)
Several values for one entry are separate records, joined by “and”; a condition that tells them apart may be missing. Identical values can stand only once.

Columns and labels:
[1] = biological target: biotinylated 6X-His-GSK3β (human, UniProt P49841 1-420, biotin (site not stated)); assay: BLI
[2] = biological target: 6X-HisGSK3β purchased from Signalchem (G09-10H-05) (human, UniProt P49841 1-420); assay: MST
[3] = biological target: N- and C-terminal double His-tagged GSK3β (His-GSK3β-His) (human, UniProt P49841 1-420); assay: SPR
Chain of N- and C-terminal double His-tagged GSK3β (His-GSK3β-His) (P49841 whole entry): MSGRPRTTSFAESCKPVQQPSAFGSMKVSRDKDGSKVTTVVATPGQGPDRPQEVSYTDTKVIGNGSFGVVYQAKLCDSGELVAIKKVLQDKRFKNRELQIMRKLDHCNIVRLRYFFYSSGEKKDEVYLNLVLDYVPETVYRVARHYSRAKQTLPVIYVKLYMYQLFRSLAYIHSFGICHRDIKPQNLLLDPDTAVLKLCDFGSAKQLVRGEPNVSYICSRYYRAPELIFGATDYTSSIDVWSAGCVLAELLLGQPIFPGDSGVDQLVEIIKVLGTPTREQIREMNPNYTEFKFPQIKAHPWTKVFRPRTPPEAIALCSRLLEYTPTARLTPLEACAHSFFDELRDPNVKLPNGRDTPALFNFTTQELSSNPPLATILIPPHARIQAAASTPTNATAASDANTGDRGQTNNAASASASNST

Chain of biotinylated 6X-His-GSK3β (P49841 whole entry): as above
Chain of 6X-HisGSK3β purchased from Signalchem (G09-10H-05) (P49841 whole entry): as above

Binder | Kd [1] | Kd [2] [µM] | koff [3] [s⁻¹] | kon [3] [M⁻¹ s⁻¹] | Kd [3]
VEPQKFAEELIHRLEAVQ [AxinGID] | 63.6 µM | – | – | – | –
PEVPPTPPGSHSAFTSSFSFIRLSLGSAGERGEAEGCPPSREAE (peptide, UniProt Q9NRI5 193-236, looked up) [hDISCtide, 44-mer peptide derived from human DISC1 (residues 193-236)] | – | 5.7 | 0.000249 | 495 ± 31.4 | –
DPHRLLQQLVLSGNLIKEAVRRLHS [FRATide] | 3.6 µM and 3.8 µM | – | – | – | 1.9 µM and 3.2 µM
